Test [1] addresses CCR9-RlucII (human) (UniProt P51686).
Another test concerns the target CCR9 ΔCT (human) (UniProt P51686).
The target of test [2] is CCR9 C1 (CCR9-RlucII with S335A/T347A/S352A/S356A/S357A) (human) (UniProt P51686).
In test [3] the target is CCR9 C1 + C2 (CCR9-RlucII with all C-tail phosphorylation sites changed to alanine) (human) (UniProt P51686).
Test [4] deals with CCR9-RlucII (human) (UniProt P51686). This is another data set of the same source.

Chain of Gαq-Nluc (P50148 whole entry): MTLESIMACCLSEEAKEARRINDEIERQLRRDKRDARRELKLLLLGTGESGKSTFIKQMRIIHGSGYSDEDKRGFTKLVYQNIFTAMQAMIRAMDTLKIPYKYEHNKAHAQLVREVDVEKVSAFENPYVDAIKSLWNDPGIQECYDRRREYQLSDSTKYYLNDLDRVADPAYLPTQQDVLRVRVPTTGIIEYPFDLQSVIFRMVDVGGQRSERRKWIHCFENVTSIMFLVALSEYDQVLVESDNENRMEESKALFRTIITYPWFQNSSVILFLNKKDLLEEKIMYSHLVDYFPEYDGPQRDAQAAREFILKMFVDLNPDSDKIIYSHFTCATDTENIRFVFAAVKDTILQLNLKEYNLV
Chain of Gαi-Nluc (P63096 whole entry): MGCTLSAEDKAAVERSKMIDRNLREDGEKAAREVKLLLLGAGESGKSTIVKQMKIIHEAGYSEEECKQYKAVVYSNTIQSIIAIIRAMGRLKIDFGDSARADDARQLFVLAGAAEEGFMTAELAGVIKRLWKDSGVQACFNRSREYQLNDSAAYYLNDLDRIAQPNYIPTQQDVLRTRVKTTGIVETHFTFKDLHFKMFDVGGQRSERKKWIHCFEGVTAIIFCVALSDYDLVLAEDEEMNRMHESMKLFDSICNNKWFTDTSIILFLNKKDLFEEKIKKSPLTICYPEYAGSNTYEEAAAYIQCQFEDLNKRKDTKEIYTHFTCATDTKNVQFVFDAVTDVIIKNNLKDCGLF

“Gαi-Nluc (from UniProt P63096 1-354) (natural protein)” returned a decrease in BRET between Gαi-Nluc and Gβγ-smV (G protein dissociation) in HEK293 cells with untagged CCR9, 100 nM CCL25; returns to basal levels within 10 min in the test with CCR9-RlucII (human) [1] of 2%. In the test with CCR9 ΔCT (human), this substance returned an area over the Gαi–Gβγ dissociation curve (AOC), against CCR9 WT of 6 fold; a maximal decrease in BRET between Gαi-Nluc and Gβγ-smV (G protein dissociation) in HEK293 cells, 100 nM CCL25 of 7%. In test [2], this substance had a Gαi-Nluc/Gβγ-smV dissociation BRET (AOC) in HEK293 cells with untagged CCR9 C1, 100 nM CCL25, against CCR9 WT of 2 fold. Besides, in test [3], the Gαi-Nluc/Gβγ-smV dissociation BRET (AOC) in HEK293 cells with untagged CCR9 C1 + C2, 100 nM CCL25, against CCR9 WT was 2 fold.

In the test with CCR9 ΔCT (human), “Gαq-Nluc (from UniProt P50148 1-359) (natural protein)” gave an area over the Gαq–Gβγ dissociation curve (AOC), against CCR9 WT of 4 fold; a maximal decrease in BRET between Gαq-Nluc and Gβγ-smV (G protein dissociation) in HEK293 cells, 100 nM CCL25 of 5%. For the same substance, in the test with CCR9-RlucII (human) [4], the decrease in BRET between Gαq-Nluc and Gβγ-smV (G protein dissociation) in HEK293 cells with untagged CCR9, 100 nM CCL25 was 0%.

The record behind these values is PMC12147180.
